Publication PMC7900552, “Iris domestica (iso)flavone 7- and 3′-O-Glycosyltransferases Can Be Induced by CuCl2” (Frontiers in Plant Science, 2021)
Residue numbers refer to the chain shown, from its start.

B1: BcUGT4 (Iris domestica) (protein)
chain: MQLKESVVLFPSVGMGHLIPMVELAKLFIGHGFSVTIVVVEPPFDVSTTNHPFISRVSSEYPSISFHRLPKVVPPATFRPPVIVLFETLRLACPQLLDFLKTIRSTSNVRALVLDMFCTSALDVADELGLPSYFFFASGASTLAAFLLFPTLQSKLDGNFRDLGSSPVHFPGLPPVPASDLPTQMQERGEANDGIMFHFKRLPRAKGIMINTPEWLEKRAVEALANGECLPDRTMPPVYCIGPLVASGSNGGGGGEGERHECLAWLDAQPKKSVVFLCFGSMGSFSAEQVKEMAVGLERSGQRFLWVVRSPPLKDDPAARPGARPEPDLEALLPEGFLERTKGKGMVVKSWAPQAAVLAHGSVGGFVSHCGWNSTLEAVSSGVPIIAWPLYAEQRMNKVFLVEEAKLAVAMEGYNKDVVSAEEVEKKIRWLMESEDGKALKDRAVEAKEKAVAAWKQEGSSFLAWLELVRAVRKEA
notes: full ORF in pCold-TF, E. coli, His-tag + trigger factor fusion (~105 kDa; UGT ~53 kDa), Ni-NTA
B2: BcUGT5 (Iris domestica) (protein)
chain: MQLKESVVLFPSVGMGHLIPMVELAKLFIGHGFSVTIVVVEPPFDVSTTNHPFISRVSSEYPSISFHRLPKVIPPATSRPPVFAFIETLRLACPHLLDFLKTIRSTSNVRALVLDMFCTSALDVADELGLPSYFFFASGASTLAAFLLLPTLQSKLDGNFRDLGSSPVHFPGLPPVPASDLLIHVQERGEANDEIMFHFKRLPRAKGIMINTMEWLEKRAVEALANGECLPDRTMPPVYCIGPLVASGSNGGGGEGERHECLAWLDAQPEKSVVFLCFGSMGSFSAEQVKEMAVGLERSGQRFLWVVRSPPLKDDPAARPGARPEPDLEALLPEGFLERTKGKGMVVKSWAPQAAVLAHGSVGGFVSHCGWNSTLEAVSSGVPIIAWPLYAEQRMNKVFLVEEAKLAVAMEGYNKDVVSAEEVEKKIRWLMESEDGKALKDRAVEAKEKAVAAWKQEGSSSLAWLELVRAVRKEA
notes: as for B1
B3: BcUGT7 (Iris domestica) (protein)
chain: MQLKESVVLFPSVGMGHLIPMVELAKLFIGHGFSVTIVVVEPPFDASTTSGPFISRVSSEYPSISFHRLPKVVPPATSKPPMIVIYETLRLACPHLLDFLKTIRSTAKVRALVLDMFCTSALDVADELGLPSYFFFASGASALAAYLLLPTLQSKLDGNFRDLGSSPVHFPGVPPVPASDLLTHVQERGESNDGIMLHFKRFPRAKGIMINTPEWLEKRAVEALANGECLPDRTMPPVYCIGPLVANGSNGGEGGGERHECLAWLDAQPEKSVVFLCFGSLGSFSGEQLKEMAIGLERSGQLFLWVVRSPPLKDDPAARPGARPEPDLEALLPEGFLERTKGKGMVVKSWAPQAAVLAHGSVGGFVSHCGWNSTLEAVSSGVPIIAWPLYAEQRMNKVFLVEEAKVAVAMEGYDKDIVSAEEVEKKIRWLMESKDGKAMKDRAVEAKEKAVAAWKEDGSSSLAWLELERALRMGA
notes: as for B1
B4: BcUGT1 (Iris domestica) (protein)
chain: MQLKESVVLFPSMGMGHIIPMVELAKLFIGHGFSVTIVDVEPPFDDSTTKGPFISRISSEYPSISFHRLPKVIPPATSRPPVFAFIETLRLACPHLLDFLKTIRSTTNVRALVLDMFCTPALDVADELGLPSYFFFSSSASILAAFLFFPILQDKLDGNFRDLGSSPIHFPGLPPVPASDLPTQMQERGEANDGIMFHFNSYPRATGIMINTLEWLEKRAIEVLANGECLPDRTMPPVYCIGPLVATGSNEGEGEGEGEKHECLAWLDAQPEKSVVFLCFGSMGSFSAEQVKEIAIGLERSGQRFLWVVRSPPLKDDPAARHGARPEPDLEALLPEGFLERTKEKGMVVKSWAPQAAVLAHGSVGGFVSHCGWNSTLEAVSSGVPIIAWPLYAEQRMNKVFLVEEAKLAVAMEGYNKDVVSAEEVEKKIRWLMESEDGKALKDRAVEAKEKAVAAWKQEGSSFLAWLELVRAVRKEA
notes: as for B1
B5: BcUGT2 (Iris domestica) (protein)
chain: B4 chain with E344G, N416D, A440V, L441M, W456R, K457M, E459D, F463S
B6: BcUGT8 (Iris domestica) (protein)
chain: MEFTQSVILYPSLGMGHLIPTLELAKLFIDQGFSVTIVVIDSPPSDTSSTMDSFISRASSAYPSLSFHRLPKVAPPASKLPMVFLSETVRLANASLLDFLSSKKSTSDIRAVVLDMFCSASLDIVEELHLPSYFFFSSSASALAACLFFPTLQSQLAGSFRDLGSSPVHFPGLPPIPASDLPADVQVRGESYDAALAHFVRLPRADGIMINTFESLEKRAVRALVDGVCVPGRATPPVYCIGPLIADGSDGGERHECLAWLDAQPERSVVFLCFGSMGSFSTEQLKETAGGLERSGQRFLWVVRSPPSDPAYPFGPRAETELEALLPEGFLERTRERGMVLESWAPQAAVLAHRSVGGFVSHCGWNSTLEAVCSGVPMLGWPLYAEQRMNRVSLVEEAKVAVAMEGCHNGLVSADEVETKIRRLMESRALGERMAATKERAVAARTEGGESTLALLELVRALRKATPGTGA
notes: as for B1

substrate: COc1c(O)cc2occ(-c3ccc(O)cc3)c(=O)c2c1O; experiment: purified protein; details: 2 mM UDP-glucose, 1 mM DTT, 50 mM PBS, pH 8.0, 30°C, 10 min

For B1, which Km is on record?
Its Km is 0.115 ± 0.023 mM.

And the kcat?
Its kcat is 155.18 ± 12.26 s⁻¹.

And the kcat/Km?
Its kcat/Km is 1.35e+06 M⁻¹ s⁻¹.

With B2 as the protein, how does the Km read?
Its Km is 0.201 ± 0.015 mM.

And the kcat?
The kcat was 116.03 ± 6.98 s⁻¹.

What about the kcat/Km of the same protein?
The kcat/Km was 577000 M⁻¹ s⁻¹.

What does the source list for B3?
Km: 1.269 ± 0.009 mM; kcat: 15.86 ± 7.53 s⁻¹; kcat/Km: 19800 M⁻¹ s⁻¹

With B4 as the protein, how does the Km read?
Its Km is 0.592 ± 0.049 mM.

And the kcat?
Its kcat is 57.29 ± 4.94 s⁻¹.

And the kcat/Km?
Its kcat/Km is 96800 M⁻¹ s⁻¹.

For B5, which Km is on record?
The Km was 0.392 ± 0.007 mM.

And the kcat?
The kcat was 70.10 ± 9.86 s⁻¹.

And the kcat/Km?
Its kcat/Km is 179000 M⁻¹ s⁻¹.

substrate: COc1cc(-c2coc3cc(O)c(OC)c(O)c3c2=O)cc(O)c1OC; experiment: HPLC glucosylation assay; type: biochemical, Iris domestica; details: 2 mM UDP-glucose, 1 mM DTT, 50 mM PBS, pH 8.0, 30°C, 10 min

Which Km does the source give for B1 here?
The Km was 0.190 ± 0.007 mM.

What about the kcat of the same protein?
The kcat was 57.23 ± 18.21 s⁻¹.

What about the kcat/Km of the same protein?
The kcat/Km was 301000 M⁻¹ s⁻¹.

With B2 as the protein, how does the Km read?
Its Km is 0.121 ± 0.009 mM.

And the kcat?
The kcat was 296.52 ± 11.8 s⁻¹.

What about the kcat/Km of the same protein?
Its kcat/Km is 2.45e+06 M⁻¹ s⁻¹.

With B3 as the protein, how does the Km read?
Its Km is 0.894 ± 0.011 mM.

And the kcat?
The kcat was 17.73 ± 9.89 s⁻¹.

What about the kcat/Km of the same protein?
Its kcat/Km is 19800 M⁻¹ s⁻¹.

Which Km does the source give for B6 here?
Its Km is 1.423 ± 0.021 mM.

What about the kcat of the same protein?
The kcat was 11.97 ± 1.31 s⁻¹.

What about the kcat/Km of the same protein?
Its kcat/Km is 8410 M⁻¹ s⁻¹.

With B4 as the protein, how does the Km read?
The Km was 0.210 ± 0.013 mM.

And the kcat?
The kcat was 58.88 ± 3.24 s⁻¹.

And the kcat/Km?
Its kcat/Km is 280000 M⁻¹ s⁻¹.
